Experimental data published in PMC9065035, “Structural basis for the synthesis of the core 1 structure by C1GalT1” (Nature Communications, 2022).
pKd: −log10 of the molar value. Each block holds one substance with its values, some of them ahead of it.

Legend:
[1] = biological target: Drosophila melanogaster C1GalT1, residues T43-Q388 (DmC1GalT1^T43-Q388) (Drosophila melanogaster) (UniProt Q7K237); assay: ITC; 2 mM glycopeptide titrated into the enzyme (60 uM for APDT*RP, 50 uM for P4/P7); excess of UDP: 25 mM TRIS pH 7.5, 150 mM NaCl, 1 mM UDP, 1 mM MnCl2; 20 °C; one-site model; duplicate
[2] = tested on: CC(=O)N[C@H]1[C@@H](O[C@H](C)[C@H](NC(=O)[C@H](CC(=O)O)NC(=O)[C@@H]2CCCN2C(=O)[C@H](C)N)C(=O)N[C@@H](CCCNC(=N)N)C(=O)N2CCC[C@H]2C(N)=O)O[C@H](CO)[C@H](O)[C@@H]1O; assay: purified protein, by the assay type; settings: 500 µM UDP-Gal, 37.0 °C
[3] = tested on: CC(=O)N[C@H]1[C@@H](O[C@H](C)[C@H](NC(=O)[C@H](C)NC(=O)[C@H](C)NC(=O)[C@@H]2CCCN2)C(=O)NCC(=O)N2CCC[C@H]2C(=O)N[C@@H](Cc2ccc(O)cc2)C(N)=O)O[C@H](CO)[C@H](O)[C@@H]1O; assay: purified protein, by the assay type; settings: other: acceptor substrate varied (P1–P7 12.5–500 µM; APDT*RP/APDS*RP 12.5–1000 µM; α-O-methyl-GalNAc up to 2 mM), 500 µM UDP-Gal, 500 nM enzyme, 25 mM Tris pH 7.5, 150 mM NaCl, 50 µM MnCl2, 1 mg/ml BS, 37.0 °C
[4] = tested on: CC(=O)N[C@H]1[C@@H](O[C@H](C)[C@H](NC(=O)[C@H](CC(=O)O)NC(=O)[C@H](C)NC(=O)[C@@H](N)Cc2ccc(O)cc2)C(=O)NCC(=O)N2CCC[C@H]2C(=O)N[C@@H](Cc2ccccc2)C(N)=O)O[C@H](CO)[C@H](O)[C@@H]1O; assay: purified protein, by the assay type; settings: other: acceptor substrate varied (P1–P7 12.5–500 µM; APDT*RP/APDS*RP 12.5–1000 µM; α-O-methyl-GalNAc up to 2 mM), 500 µM UDP-Gal, 500 nM enzyme, 25 mM Tris pH 7.5, 150 mM NaCl, 50 µM MnCl2, 1 mg/ml BS, 37.0 °C
[5] = biological target: DmC1GalT1^T43-Q388 (Drosophila melanogaster C1GalT1, residues T43-Q388) (Drosophila melanogaster) (UniProt Q7K237); assay: ITC; with an excess of UDP: 2 mM (glyco)peptide titrated into 60 μM (APDT*RP, APDTRP) or 50 μM (P4/P7) enzyme; 25 mM TRIS pH 7.5, 150 mM NaCl, 1 mM UDP, 1 mM MnCl2; 20 °C; one-site model; low Wiseman c (c < 1)
[6] = biological target: DmC1GalT1^T43-Q388 (Drosophila melanogaster C1GalT1, residues T43-Q388) (Drosophila melanogaster) (UniProt Q7K237)
[7] = biological target: DmC1GalT1^T43-Q388 (Drosophila melanogaster C1GalT1, residues T43-Q388) (Drosophila melanogaster); assay: ITC; under an excess of UDP: 2 mM (glyco)peptide titrated into DmC1GalT1^T43-Q388 (60 µM for APDT*RP and APDTRP, 50 µM for P4/P7); 20 °C; 25 mM TRIS pH 7.5, 150 mM NaCl, 1 mM UDP, 1 mM MnCl2; one-site model; duplicate
[8] = other: acceptor substrate varied (P1–P7 12.5–500 µM; APDT*RP/APDS*RP 12.5–1000 µM; α-O-methyl-GalNAc up to 2 mM), 500 nM enzyme, 25 mM Tris pH 7.5, 150 mM NaCl, 50 µM MnCl2, 1 mg/ml BS

- pKd [1]: 3.76
Substance: APDT*RP glycopeptide (GalNAc on Thr)

- pKd [7]: 3.76
- stoichiometry N [7]: 0.88
Substance: APDT*RP glycopeptide (* = GalNAc on the Thr)

The next lines start with the substance.

Substance: DmC1GalT1^S73-Q388 (Drosophila melanogaster)
- Km ([2]; other: construct S73-Q388 (Hi5 cells), APDT*RP varied 12.5 µM–1 mM, fit ± standard error, n = 2, pH 7.5): 322.6 µM

Substance: DmC1GalT1^T43-Q388 (Drosophila melanogaster)
- Km [3]: 50.06 µM
- Km [4]: 139.6 µM
- Km [2, 8]: 195 µM
- kcat [2, 8]: 0.0583 s⁻¹

Substance: APDT*RP glycopeptide (MUC1 tandem repeat epitope with alpha-GalNAc on Thr)
- fold by which UDP binds the enzyme more strongly than this peptide [5]: 9.5 fold
- stoichiometry N [5]: 1
- Km^app of the glycopeptide as acceptor substrate (UDP-Glo glycosylation kinetics, 500 nM enzyme, 500 μM UDP-Gal) [6]: 195 µM
